Experimental data reported in paper PMC4646227, “Plasticity in PYD assembly revealed by cryo-EM structure of the PYD filament of AIM2” (Cell Discovery, 2015).

B1: His-GFP-tagged AIM2 PYD (M1-P100) (domain or fragment, human, UniProt O14862 1-100, looked up)
chain: MESKYKEILLLTGLDNITDEELDRFKFFLSDEFNIATGKLHTANRIQVATLMIQNAGAVSAVMKTIRIFQKLNYMLLAKRLQEEKEKVDKQYKSVTKPKP
notes: Absent in melanoma 2 (AIM2), human, Pyrin domain, residues M1-P100; Non-cleavable His-GFP tag from a pET28a backbone; A two-residue linker from the BamHI site joins GFP and AIM2 PYD; The protein forms filaments; also called GFP-AIM2^PYD; His-GFP-AIM2^PYD; source: E. coli BL21(DE3), purified (Ni-NTA, SEC; void fractions); not shown: His, N-terminal, kept; GFP (monomeric, M1-T230, A206K), …

Columns and labels:
[1] = target: ASC PYD (M1-Q105, S106C), fluorophore-labelled, MBP removed by TEV (UniProt Q9ULZ3); assay: fluorescence polarisation; apparent; Alexa Fluor 488-labelled MBP-ASC PYD, same procedure, mCherry-NLRP6 PYD added as nucleator
[2] = target: T1, ASC PYD (M1-Q105, S106C), fluorophore-labelled, MBP removed by TEV (UniProt Q9ULZ3 1-106, S106C, Alexa Fluor 568 on the engineered C-terminal Cys (maleimide); Alexa Fluor 488 instead in the experiment with mCherry-NLRP6^PYD); assay: fluorescence polarisation; apparent; Alexa568-labelled MBP-ASC PYD, polymerisation started by TEV removal of MBP; initial rates of ASC PYD filament formation plotted against concentrations of added GFP-AIM2 PYD seeds; conditions: both partners purified
T1 construct: Apoptosis-associated speck-like protein containing a CARD (ASC), Pyrin domain, M1-Q105 followed by an engineered Cys (S106C); also called labeled MBP-ASC^PYD (before cleavage); source: E. coli BL21(DE3), purified (Ni-NTA, SEC) as monomeric MBP fusion, labelled, MBP removed by TEV in the assay

[3] = target: the molecule itself; assay: cryo-EM structure; helical reconstruction of His-GFP-AIM2 PYD filaments; sample in 20 mM HEPES pH 8.0, 150 mM NaCl, 2 mM dithiothreitol

T1 sequence (Q9ULZ3 1-106 S106C): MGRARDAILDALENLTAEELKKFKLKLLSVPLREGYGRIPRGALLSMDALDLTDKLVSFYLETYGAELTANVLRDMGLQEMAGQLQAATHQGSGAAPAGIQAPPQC
ASC PYD (M1-Q105, S106C), fluorophore-labelled, MBP removed by TEV (UniProt Q9ULZ3), sequence (Q9ULZ3 1-106 S106C): as above

Molecule	Kd [1] [nM]	Kd [2] [nM]	binding result [3]
mCherry-tagged NLRP6 PYD (domain or fragment)	90		
B1		~210	binds
